Experimental data taken from EP4786492A1.

Columns and labels:
[1] = target: DLL3 endogenously expressed on NCI-H82 cells (UniProt Q9NYJ7); assay: FACS on NCI-H82 cells; antibody 0.00128 nM
[2] = target: monkey DLL3 on CHO-K1-cyno DLL3 cells (cynomolgus monkey); assay: FACS, CHO-K1-cyno DLL3 cells, 0.00128 nM antibody
[3] = target: mouse DLL3 on CHO-K1-mDLL3 cells (mouse) (UniProt O88516); assay: FACS, CHO-K1-mDLL3 cells, 20 nM antibody
[4] = target: human DLL3 protein expressed on CHO-K1 recombinant cells (human DLL3 extracellular segment fused to EpCAM transmembrane and intracellular regions) (human) (UniProt Q9NYJ7); assay: FACS, CHO-K1 hDLL3 cells, 0.00128 nM antibody
[5] = target: human DLL3 protein expressed on CHO-K1 recombinant cells (human DLL3 extracellular segment fused to EpCAM transmembrane and intracellular regions) (human) (UniProt Q9NYJ7); assay: FACS, CHO-K1 hDLL3 cells, 0.8 nM antibody
[6] = target: DLL3 endogenously expressed on NCI-H82 cells (UniProt Q9NYJ7); assay: FACS on NCI-H82 cells; antibody 4 nM
[7] = target: human DLL3 protein expressed on CHO-K1 recombinant cells (human DLL3 extracellular segment fused to EpCAM transmembrane and intracellular regions) (human) (UniProt Q9NYJ7); assay: FACS, CHO-K1 hDLL3 cells, 100 nM antibody
[8] = target: monkey DLL3 on CHO-K1-cyno DLL3 cells (cynomolgus monkey); assay: FACS, CHO-K1-cyno DLL3 cells, 0.032 nM antibody
[9] = target: DLL3 endogenously expressed on NCI-H82 cells (UniProt Q9NYJ7); assay: FACS on NCI-H82 cells; antibody 0.032 nM
[10] = target: monkey DLL3 on CHO-K1-cyno DLL3 cells (cynomolgus monkey); assay: FACS, CHO-K1-cyno DLL3 cells, 100 nM antibody
[11] = target: human delta-like ligand 3 (DLL3) on SHP77 cells (human) (UniProt Q9NYJ7); assay: FACS on SHP77 cells
[12] = target: mouse DLL3 on CHO-K1-mDLL3 cells (mouse) (UniProt O88516); assay: FACS, CHO-K1-mDLL3 cells, 4 nM antibody
[13] = target: monkey DLL3 on CHO-K1-cyno DLL3 cells (cynomolgus monkey); assay: FACS, CHO-K1-cyno DLL3 cells, 4 nM antibody
[14] = target: human DLL3 protein expressed on CHO-K1 recombinant cells (human DLL3 extracellular segment fused to EpCAM transmembrane and intracellular regions) (human) (UniProt Q9NYJ7); assay: FACS, CHO-K1 hDLL3 cells, 20 nM antibody
[15] = target: monkey DLL3 on CHO-K1-cyno DLL3 cells (cynomolgus monkey); assay: FACS, CHO-K1-cyno DLL3 cells, 0.16 nM antibody
[16] = target: human DLL3 protein expressed on CHO-K1 recombinant cells (human DLL3 extracellular segment fused to EpCAM transmembrane and intracellular regions) (human) (UniProt Q9NYJ7); assay: FACS, CHO-K1 hDLL3 cells, 0.16 nM antibody
[17] = target: human DLL3 protein (extracellular segment, His tag) (human) (UniProt Q9NYJ7); assay: SPR (Biacore 8K), antibody captured on Protein A chip, DLL3 antigen in solution, 1:1 Langmuir fit
[18] = target: mouse DLL3 on CHO-K1-mDLL3 cells (mouse) (UniProt O88516); assay: FACS, CHO-K1-mDLL3 cells, 0.0064 nM antibody
[19] = target: human DLL4 protein (Acro, Cat. No. DL4-H5227) (human) (UniProt Q9NR61); assay: ELISA, coated hDLL4; maximum over 0.1, 1, 10, 100 nM antibody
[20] = target: human DLL1 protein (Acro, Cat. No. DL1-H52H8) (human) (UniProt O00548); assay: ELISA, coated hDLL1; maximum over 0.1, 1, 10, 100 nM antibody
[21] = target: mouse DLL3 on CHO-K1-mDLL3 cells (mouse) (UniProt O88516); assay: FACS, CHO-K1-mDLL3 cells, 0.032 nM antibody
[22] = target: monkey DLL3 on CHO-K1-cyno DLL3 cells (cynomolgus monkey); assay: FACS, CHO-K1-cyno DLL3 cells, 0.8 nM antibody
[23] = target: DLL3 endogenously expressed on NCI-H82 cells (UniProt Q9NYJ7); assay: FACS on NCI-H82 cells; antibody 100 nM
[24] = target: human DLL3 protein expressed on CHO-K1 recombinant cells (human DLL3 extracellular segment fused to EpCAM transmembrane and intracellular regions) (human) (UniProt Q9NYJ7); assay: FACS, CHO-K1 hDLL3 cells, 0.032 nM antibody
[25] = target: mouse DLL3 on CHO-K1-mDLL3 cells (mouse) (UniProt O88516); assay: FACS, CHO-K1-mDLL3 cells, 0.16 nM antibody
[26] = target: DLL3 endogenously expressed on NCI-H82 cells (UniProt Q9NYJ7); assay: FACS on NCI-H82 cells; antibody 0.0064 nM
[27] = target: monkey DLL3 on CHO-K1-cyno DLL3 cells (cynomolgus monkey); assay: FACS, CHO-K1-cyno DLL3 cells, 0.0064 nM antibody
[28] = target: DLL3 endogenously expressed on NCI-H82 cells (UniProt Q9NYJ7); assay: FACS on NCI-H82 cells; antibody 20 nM
[29] = target: human DLL3 protein expressed on CHO-K1 recombinant cells (human DLL3 extracellular segment fused to EpCAM transmembrane and intracellular regions) (human) (UniProt Q9NYJ7); assay: FACS, CHO-K1 hDLL3 cells, 4 nM antibody
[30] = target: mouse DLL3 on CHO-K1-mDLL3 cells (mouse) (UniProt O88516); assay: FACS, CHO-K1-mDLL3 cells, 0.8 nM antibody
[31] = target: monkey DLL3 on CHO-K1-cyno DLL3 cells (cynomolgus monkey); assay: FACS, CHO-K1-cyno DLL3 cells, 20 nM antibody
[32] = target: DLL3 endogenously expressed on NCI-H82 cells (UniProt Q9NYJ7); assay: FACS on NCI-H82 cells; antibody 0.16 nM
[33] = target: mouse DLL3 on CHO-K1-mDLL3 cells (mouse) (UniProt O88516); assay: FACS, CHO-K1-mDLL3 cells, 0.00128 nM antibody
[34] = target: mouse DLL3 on CHO-K1-mDLL3 cells (mouse) (UniProt O88516); assay: FACS, CHO-K1-mDLL3 cells, 100 nM antibody
[35] = target: DLL3 endogenously expressed on NCI-H82 cells (UniProt Q9NYJ7); assay: FACS on NCI-H82 cells; antibody 0.8 nM
[36] = target: human DLL3 protein expressed on CHO-K1 recombinant cells (human DLL3 extracellular segment fused to EpCAM transmembrane and intracellular regions) (human) (UniProt Q9NYJ7); assay: FACS, CHO-K1 hDLL3 cells, 0.0064 nM antibody

Chain of human DLL3 protein expressed on CHO-K1 recombinant cells (human DLL3 extracellular segment fused to EpCAM transmembrane and intracellular regions) (human) (Q9NYJ7 other isoform, or with tags, fused parts or gaps limits assumed): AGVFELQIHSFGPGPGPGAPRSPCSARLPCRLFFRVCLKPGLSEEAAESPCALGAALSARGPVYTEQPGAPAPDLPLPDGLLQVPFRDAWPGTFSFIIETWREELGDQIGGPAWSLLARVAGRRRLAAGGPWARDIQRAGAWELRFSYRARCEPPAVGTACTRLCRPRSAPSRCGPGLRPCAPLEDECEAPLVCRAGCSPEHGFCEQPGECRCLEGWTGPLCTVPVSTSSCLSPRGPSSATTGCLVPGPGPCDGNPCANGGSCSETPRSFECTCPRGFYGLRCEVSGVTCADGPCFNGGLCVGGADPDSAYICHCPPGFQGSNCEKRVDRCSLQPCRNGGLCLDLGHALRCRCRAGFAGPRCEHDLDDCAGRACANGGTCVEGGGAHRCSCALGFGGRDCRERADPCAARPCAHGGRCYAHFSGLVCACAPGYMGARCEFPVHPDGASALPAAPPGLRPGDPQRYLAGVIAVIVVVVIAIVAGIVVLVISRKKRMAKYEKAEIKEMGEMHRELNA
Chain of human DLL1 protein (Acro, Cat. No. DL1-H52H8) (human) (O00548 18-540 limits assumed): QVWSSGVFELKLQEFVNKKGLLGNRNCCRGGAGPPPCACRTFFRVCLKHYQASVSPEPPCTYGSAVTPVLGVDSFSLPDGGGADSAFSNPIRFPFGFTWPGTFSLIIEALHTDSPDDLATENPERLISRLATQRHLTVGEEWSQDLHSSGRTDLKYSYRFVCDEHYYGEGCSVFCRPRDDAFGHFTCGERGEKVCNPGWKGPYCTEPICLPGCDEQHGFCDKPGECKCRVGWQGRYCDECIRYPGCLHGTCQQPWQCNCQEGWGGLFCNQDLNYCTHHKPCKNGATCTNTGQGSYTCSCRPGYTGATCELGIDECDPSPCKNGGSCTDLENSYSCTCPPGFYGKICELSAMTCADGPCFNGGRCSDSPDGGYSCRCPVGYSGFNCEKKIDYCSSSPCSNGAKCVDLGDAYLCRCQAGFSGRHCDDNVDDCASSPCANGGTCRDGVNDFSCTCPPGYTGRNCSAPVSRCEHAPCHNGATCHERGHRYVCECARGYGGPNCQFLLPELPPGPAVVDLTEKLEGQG
Chain of human DLL4 protein (Acro, Cat. No. DL4-H5227) (human) (Q9NR61 27-524 limits assumed): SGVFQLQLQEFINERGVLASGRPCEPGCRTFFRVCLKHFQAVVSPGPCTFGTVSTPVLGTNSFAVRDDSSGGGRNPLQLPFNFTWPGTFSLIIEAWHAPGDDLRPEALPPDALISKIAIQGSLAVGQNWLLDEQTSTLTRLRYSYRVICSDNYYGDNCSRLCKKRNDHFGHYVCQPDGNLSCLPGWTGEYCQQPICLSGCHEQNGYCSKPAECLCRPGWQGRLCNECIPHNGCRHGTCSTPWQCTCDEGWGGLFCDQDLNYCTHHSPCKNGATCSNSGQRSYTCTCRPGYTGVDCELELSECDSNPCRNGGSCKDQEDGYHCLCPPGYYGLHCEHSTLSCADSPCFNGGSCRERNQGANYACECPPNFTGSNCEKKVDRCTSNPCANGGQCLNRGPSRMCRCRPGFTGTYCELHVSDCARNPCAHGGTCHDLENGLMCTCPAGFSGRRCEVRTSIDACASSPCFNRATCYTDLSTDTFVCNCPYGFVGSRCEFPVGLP
Chain of monkey DLL3 on CHO-K1-cyno DLL3 cells (cynomolgus monkey) (chain, as listed by the source limits assumed): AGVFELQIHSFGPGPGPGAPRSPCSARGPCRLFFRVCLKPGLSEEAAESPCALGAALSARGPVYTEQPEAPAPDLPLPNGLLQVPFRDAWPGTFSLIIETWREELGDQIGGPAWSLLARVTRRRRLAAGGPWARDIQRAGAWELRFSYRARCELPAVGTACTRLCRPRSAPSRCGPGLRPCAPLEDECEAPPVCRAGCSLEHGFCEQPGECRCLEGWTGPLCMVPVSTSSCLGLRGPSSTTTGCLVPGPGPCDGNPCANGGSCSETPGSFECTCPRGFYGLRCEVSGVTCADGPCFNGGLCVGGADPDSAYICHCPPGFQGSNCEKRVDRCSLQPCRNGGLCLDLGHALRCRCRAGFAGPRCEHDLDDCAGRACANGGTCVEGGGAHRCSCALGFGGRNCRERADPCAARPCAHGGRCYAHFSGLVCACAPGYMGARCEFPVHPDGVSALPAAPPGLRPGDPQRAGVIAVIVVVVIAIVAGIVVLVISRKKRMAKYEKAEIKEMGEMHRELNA
Chain of mouse DLL3 on CHO-K1-mDLL3 cells (mouse) (O88516 other isoform, or with tags, fused parts or gaps limits assumed): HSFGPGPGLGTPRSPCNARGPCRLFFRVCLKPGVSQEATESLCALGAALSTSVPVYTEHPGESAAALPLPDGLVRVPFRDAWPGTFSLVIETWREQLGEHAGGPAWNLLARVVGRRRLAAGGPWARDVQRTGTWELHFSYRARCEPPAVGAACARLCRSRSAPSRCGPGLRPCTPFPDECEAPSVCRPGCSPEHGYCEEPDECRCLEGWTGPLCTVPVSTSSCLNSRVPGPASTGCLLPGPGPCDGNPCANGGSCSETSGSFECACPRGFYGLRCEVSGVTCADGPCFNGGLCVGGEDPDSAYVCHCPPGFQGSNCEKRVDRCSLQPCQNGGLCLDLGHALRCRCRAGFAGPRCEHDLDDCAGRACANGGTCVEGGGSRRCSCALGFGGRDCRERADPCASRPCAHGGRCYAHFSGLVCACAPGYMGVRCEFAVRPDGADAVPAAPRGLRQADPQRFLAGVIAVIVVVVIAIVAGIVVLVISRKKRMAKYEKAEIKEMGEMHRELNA
Chain of human DLL3 protein (extracellular segment, His tag) (human) (Q9NYJ7 27-492): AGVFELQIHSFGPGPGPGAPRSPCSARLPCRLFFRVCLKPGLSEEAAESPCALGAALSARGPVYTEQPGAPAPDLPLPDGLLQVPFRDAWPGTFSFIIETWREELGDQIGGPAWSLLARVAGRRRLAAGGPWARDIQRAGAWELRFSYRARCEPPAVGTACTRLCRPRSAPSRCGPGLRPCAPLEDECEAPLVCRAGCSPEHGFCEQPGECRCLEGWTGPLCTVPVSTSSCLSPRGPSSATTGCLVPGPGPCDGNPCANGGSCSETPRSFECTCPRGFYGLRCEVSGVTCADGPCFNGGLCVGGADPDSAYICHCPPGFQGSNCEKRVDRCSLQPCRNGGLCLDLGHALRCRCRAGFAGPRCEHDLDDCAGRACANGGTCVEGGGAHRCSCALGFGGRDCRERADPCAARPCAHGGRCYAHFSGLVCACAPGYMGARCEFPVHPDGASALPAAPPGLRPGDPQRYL
Chain of DLL3 endogenously expressed on NCI-H82 cells (Q9NYJ7 27-618): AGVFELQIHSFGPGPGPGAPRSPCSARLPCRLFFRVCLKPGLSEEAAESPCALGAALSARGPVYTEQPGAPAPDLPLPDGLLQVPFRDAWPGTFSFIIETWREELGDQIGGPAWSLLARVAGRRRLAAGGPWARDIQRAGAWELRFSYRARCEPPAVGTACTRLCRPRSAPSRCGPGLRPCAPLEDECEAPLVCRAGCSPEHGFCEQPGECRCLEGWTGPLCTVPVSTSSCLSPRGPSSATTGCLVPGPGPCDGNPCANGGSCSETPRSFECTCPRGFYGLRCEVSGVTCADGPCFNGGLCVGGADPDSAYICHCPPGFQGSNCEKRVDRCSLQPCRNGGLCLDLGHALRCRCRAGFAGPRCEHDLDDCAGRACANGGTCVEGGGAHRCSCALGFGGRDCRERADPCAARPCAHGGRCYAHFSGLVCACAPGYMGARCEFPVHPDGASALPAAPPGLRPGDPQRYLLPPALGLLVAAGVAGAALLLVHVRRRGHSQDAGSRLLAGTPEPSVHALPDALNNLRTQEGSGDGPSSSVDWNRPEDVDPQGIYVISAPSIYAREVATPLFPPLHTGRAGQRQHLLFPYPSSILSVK
Chain of human delta-like ligand 3 (DLL3) on SHP77 cells (human) (Q9NYJ7 27-618, stated change not applied): as the sequence (Q9NYJ7 27-618) above

B1: Hab014VL3VH1-hFc (scFv, part only; not given: VL-VH linker and human IgG1 Fc, V domains shown, not shown: another chain or arm of the molecule; a dimerising Fc or GST; small tags and cut ends)
VL: DIVMTQSPDSLAVSLGERATINCKASEDIYNRLAWYQQKPGQTPKLLISGATSLETGVPDRFSGSGSGKDFTLTISSLQAEDVAVYYCQQYWSLPWTFGGGTKVEIK
VH: EVQLVQSGAEVKKPGASVKVSCKASGYTFTDYYMNWVRQAPGQRLEWMGDINPNHGDTGYNQKFTGRVTITVDKSASTAYMELSSLRSEDTAVYYCARNFFYYGTTYGWYFDVWGQGTTVTVSS
[1]
  MFI: 108
[2]
  MFI: 180 MFI
[3]
  MFI: 332 MFI
[4]
  MFI: 207 MFI
[5]
  MFI: 7320 MFI
[6]
  MFI: 596
[7]
  MFI: 16500 MFI
[8]
  MFI: 565 MFI
[9]
  MFI: 178
[10]
  MFI: 33900 MFI
[11]
  MFI at 0.00128 nM: 91 MFI
  MFI at 0.0064 nM: 96 MFI
  MFI at 0.032 nM: 112 MFI
  MFI at 0.16 nM: 179 MFI
  MFI at 0.8 nM: 348 MFI
  MFI at 4 nM: 567 MFI
  MFI at 20 nM: 770 MFI
  MFI at 100 nM: 1120 MFI
[12]
  MFI: 296 MFI
[13]
  MFI: 27700 MFI
[14]
  MFI: 15700 MFI
[15]
  MFI: 1730 MFI
[16]
  MFI: 2060 MFI
[17]
  Kd: 0.0946 nM
  koff: 0.000129 s⁻¹
  kon: 1.36e+06 M⁻¹ s⁻¹
[18]
  MFI: 110 MFI
[19]
  Emax of OD450 nm binding value: 0.1 OD450 nm
[20]
  Emax of OD450 nm binding value: 0.08 OD450 nm
[21]
  MFI: 137 MFI
[22]
  MFI: 8680 MFI
[23]
  MFI: 1030
[24]
  MFI: 555 MFI
[25]
  MFI: 192 MFI
[26]
  MFI: 125
[27]
  MFI: 245 MFI
[28]
  MFI: 732
[29]
  MFI: 15300 MFI
[30]
  MFI: 253 MFI
[31]
  MFI: 32500 MFI
[32]
  MFI: 356
[33]
  MFI: 103 MFI
[34]
  MFI: 382 MFI
[35]
  MFI: 547
[36]
  MFI: 299 MFI

B2: Hab015VL4VH1b-hFc (scFv, part only; not given: VL-VH linker and human IgG1 Fc, V domains shown, not shown: another chain or arm of the molecule; a dimerising Fc or GST; small tags and cut ends)
VL: NIVLTQSPATLSLSPGERATLSCKASENVGTYVSWFQQKPGQSPRLLIYGASNRYTGIPARFSGSGSGTDFTLTISSLEPEDFAVYYCGQFYSFPSTFGGGTKVEIK
VH: EVQLVESGGGLVKPGGSLRLSCAASGITFSNFWMNWVRQAPGKGLEWVGQIRLKSEDYATHYAESVKGRFTISREDSKNTVYLQMNSLKTEDTAVYYCTTGYYFDYWGQGTTVTVSS
[1]
  MFI: 114
[2]
  MFI: 117 MFI
[3]
  MFI: 1340 MFI
[4]
  MFI: 120 MFI
[5]
  MFI: 4640 MFI
[6]
  MFI: 1020
[7]
  MFI: 11800 MFI
[8]
  MFI: 389 MFI
[9]
  MFI: 218
[10]
  MFI: 7520 MFI
[11]
  MFI at 0.00128 nM: 97 MFI
  MFI at 0.0064 nM: 113 MFI
  MFI at 0.032 nM: 169 MFI
  MFI at 0.16 nM: 371 MFI
  MFI at 0.8 nM: 720 MFI
  MFI at 4 nM: 829 MFI
  MFI at 20 nM: 962 MFI
  MFI at 100 nM: 1190 MFI
[12]
  MFI: 1120 MFI
[13]
  MFI: 6270 MFI
[14]
  MFI: 11300 MFI
[15]
  MFI: 1200 MFI
[16]
  MFI: 937 MFI
[17]
  Kd: 0.0194 nM
  koff: 3.49e-05 s⁻¹
  kon: 1.8e+06 M⁻¹ s⁻¹
[18]
  MFI: 123 MFI
[19]
  Emax of OD450 nm binding value: 0.67 OD450 nm
[20]
  Emax of OD450 nm binding value: 0.39 OD450 nm
[21]
  MFI: 172 MFI
[22]
  MFI: 4290 MFI
[23]
  MFI: 1410
[24]
  MFI: 302 MFI
[25]
  MFI: 350 MFI
[26]
  MFI: 131
[27]
  MFI: 163 MFI
[28]
  MFI: 1130
[29]
  MFI: 10300 MFI
[30]
  MFI: 813 MFI
[31]
  MFI: 6820 MFI
[32]
  MFI: 461
[33]
  MFI: 114 MFI
[34]
  MFI: 1490 MFI
[35]
  MFI: 914
[36]
  MFI: 152 MFI

B3: Hab015VL4VH6a-hFc (scFv, part only; not given: scFv linker and human IgG1 Fc, V domains shown, not shown: another chain or arm of the molecule; a dimerising Fc or GST; small tags and cut ends)
VL: NIVLTQSPATLSLSPGERATLSCKASENVGTYVSWFQQKPGQSPRLLIYGASNRYTGIPARFSGSGSGTDFTLTISSLEPEDFAVYYCGQFYSFPSTFGGGTKVEIK
VH: EVQLVESGGGLVKPGGSLRLSCAASGITFSNFWMNWVRQAPEKGLEWVGQIRLKSDDYATHYAESVKGRFTISREDSKNTVYLQMNSLKTEDTAVYYCTTGYYFDYWGQGTTVTVSS
[1]
  MFI: 118
[2]
  MFI: 118 MFI
[3]
  MFI: 1460 MFI
[4]
  MFI: 120 MFI
[5]
  MFI: 4370 MFI
[6]
  MFI: 1050
[7]
  MFI: 12200 MFI
[8]
  MFI: 352 MFI
[9]
  MFI: 211
[10]
  MFI: 7480 MFI
[11]
  MFI at 0.00128 nM: 101 MFI
  MFI at 0.0064 nM: 114 MFI
  MFI at 0.032 nM: 173 MFI
  MFI at 0.16 nM: 361 MFI
  MFI at 0.8 nM: 692 MFI
  MFI at 4 nM: 821 MFI
  MFI at 20 nM: 943 MFI
  MFI at 100 nM: 1270 MFI
[12]
  MFI: 1260 MFI
[13]
  MFI: 6820 MFI
[14]
  MFI: 12400 MFI
[15]
  MFI: 1150 MFI
[16]
  MFI: 861 MFI
[17]
  Kd: 0.000116 nM
  koff: 2.03e-07 s⁻¹
  kon: 1.75e+06 M⁻¹ s⁻¹
[18]
  MFI: 130 MFI
[19]
  Emax of OD450 nm binding value: 0.64 OD450 nm
[20]
  Emax of OD450 nm binding value: 0.49 OD450 nm
[21]
  MFI: 170 MFI
[22]
  MFI: 4260 MFI
[23]
  MFI: 1550
[24]
  MFI: 265 MFI
[25]
  MFI: 361 MFI
[26]
  MFI: 133
[27]
  MFI: 153 MFI
[28]
  MFI: 1180
[29]
  MFI: 11200 MFI
[30]
  MFI: 884 MFI
[31]
  MFI: 7330 MFI
[32]
  MFI: 469
[33]
  MFI: 118 MFI
[34]
  MFI: 1590 MFI
[35]
  MFI: 913
[36]
  MFI: 144 MFI
